Source: the supplement of paper PMC9112550, “Optimization of the antimicrobial peptide Bac7 by deep mutational scanning” (BMC Biology, 2022)

Each sequence was assayed on Escherichia coli TOP10 (assay: shrunken log2 fold change of peptide-encoding DNA abundance (4.5 h post-induction vs induction); higher = less antimicrobial activity (less host growth inhibition)). Settings: time post-induction: 4.5 h; library: site-saturation at positions 5, 18, 19, 20.
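Note: peptides expressed intracellularly from a pBAD plasmid library in pooled LB shake-flask culture, induced with 0.3% L-arabinose, DNA abundance read by NGS, three biological replicates, DESeq2 with apeglm shrinkage.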

Question: For RRIRARPPRLPRPRPRPIPEPRP, which “shrunken log2 fold change” value is on record?
Answer: The value was 0.0265.

Question: For RRIRWRPPRLPRPRPRPSRPPRP, which “shrunken log2 fold change” value is on record?
Answer: The value was 0.402.

Question: How did the “shrunken log2 fold change” value turn out when RRIRYRPPRLPRPRPRPVMFPRP was run?
Answer: The value was -0.899.

Question: Which “shrunken log2 fold change” value does the source give for RRIRARPPRLPRPRPRPHRHPRP here?
Answer: The value was -0.0481.

Question: Which “shrunken log2 fold change” value does the source give for RRIRLRPPRLPRPRPRPMLTPRP here?
Answer: Its value is 0.0606.

Question: RRIRSRPPRLPRPRPRPFPLPRP was tested. Which “shrunken log2 fold change” value did it give?
Answer: The value was -0.886.

Question: For RRIRERPPRLPRPRPRPCAKPRP, which “shrunken log2 fold change” value is on record?
Answer: The value was 0.00616.

Question: For RRIRDRPPRLPRPRPRPTLVPRP, which “shrunken log2 fold change” value is on record?
Answer: The value was 0.196.

Question: With RRIRSRPPRLPRPRPRPWVIPRP as the sequence, how does the “shrunken log2 fold change” value read?
Answer: Its value is -0.201.

Question: RRIRLRPPRLPRPRPRPYAGPRP was tested. Which “shrunken log2 fold change” value did it give?
Answer: Its value is 0.0235.

Question: With RRIRFRPPRLPRPRPRPFCYPRP as the sequence, how does the “shrunken log2 fold change” value read?
Answer: The value was -0.372.

Question: Which “shrunken log2 fold change” value does the source give for RRIRARPPRLPRPRPRPDAAPRP here?
Answer: The value was 1.48.

Question: For RRIRHRPPRLPRPRPRPRGSPRP, which “shrunken log2 fold change” value is on record?
Answer: Its value is -0.00481.

Question: RRIRIRPPRLPRPRPRPSRRPRP was tested. Which “shrunken log2 fold change” value did it give?
Answer: Its value is 0.35.

Question: For RRIRIRPPRLPRPRPRPTNYPRP, which “shrunken log2 fold change” value is on record?
Answer: Its value is -0.745.

Question: With RRIRNRPPRLPRPRPRPVNWPRP as the sequence, how does the “shrunken log2 fold change” value read?
Answer: Its value is -0.0184.

Question: For RRIRKRPPRLPRPRPRPINRPRP, which “shrunken log2 fold change” value is on record?
Answer: The value was -0.159.

Question: Which “shrunken log2 fold change” value does the source give for RRIRTRPPRLPRPRPRPIQFPRP here?
Answer: The value was -0.0251.

Question: For RRIRRRPPRLPRPRPRPKSAPRP, which “shrunken log2 fold change” value is on record?
Answer: The value was 0.237.

Question: RRIRKRPPRLPRPRPRPPFYPRP was tested. Which “shrunken log2 fold change” value did it give?
Answer: Its value is 0.229.

Question: RRIRARPPRLPRPRPRPDFCPRP was tested. Which “shrunken log2 fold change” value did it give?
Answer: The value was 0.168.

Question: RRIRLRPPRLPRPRPRPTFWPRP was tested. Which “shrunken log2 fold change” value did it give?
Answer: Its value is 0.303.

Question: How did the “shrunken log2 fold change” value turn out when RRIRSRPPRLPRPRPRPGVEPRP was run?
Answer: Its value is 0.463.

Question: For RRIRWRPPRLPRPRPRPTCWPRP, which “shrunken log2 fold change” value is on record?
Answer: The value was 0.183.

Question: For RRIRWRPPRLPRPRPRPPKHPRP, which “shrunken log2 fold change” value is on record?
Answer: Its value is 0.272.

Question: With RRIRWRPPRLPRPRPRPYNRPRP as the sequence, how does the “shrunken log2 fold change” value read?
Answer: The value was -1.09.

Question: Which “shrunken log2 fold change” value does the source give for RRIRGRPPRLPRPRPRPHFEPRP here?
Answer: Its value is 0.328.

Question: How did the “shrunken log2 fold change” value turn out when RRIRSRPPRLPRPRPRPSCKPRP was run?
Answer: Its value is -0.797.

Question: Which “shrunken log2 fold change” value does the source give for RRIRKRPPRLPRPRPRPHTSPRP here?
Answer: Its value is -0.469.

Question: Which “shrunken log2 fold change” value does the source give for RRIRHRPPRLPRPRPRPPSHPRP here?
Answer: The value was -0.139.

Question: How did the “shrunken log2 fold change” value turn out when RRIRRRPPRLPRPRPRPDTDPRP was run?
Answer: The value was -0.108.

Question: For RRIRRRPPRLPRPRPRPNYYPRP, which “shrunken log2 fold change” value is on record?
Answer: The value was -0.333.

Question: Which “shrunken log2 fold change” value does the source give for RRIRGRPPRLPRPRPRPQRFPRP here?
Answer: Its value is 0.139.

Question: For RRIRIRPPRLPRPRPRPCFCPRP, which “shrunken log2 fold change” value is on record?
Answer: The value was -0.422.

Question: Which “shrunken log2 fold change” value does the source give for RRIRKRPPRLPRPRPRPFARPRP here?
Answer: Its value is 0.187.

Question: Which “shrunken log2 fold change” value does the source give for RRIRVRPPRLPRPRPRPQTDPRP here?
Answer: Its value is -0.27.

Question: With RRIRRRPPRLPRPRPRPKFIPRP as the sequence, how does the “shrunken log2 fold change” value read?
Answer: Its value is -0.207.

Question: Which “shrunken log2 fold change” value does the source give for RRIRLRPPRLPRPRPRPMEYPRP here?
Answer: Its value is 0.015.

Question: For RRIRGRPPRLPRPRPRPAAMPRP, which “shrunken log2 fold change” value is on record?
Answer: Its value is 1.54.

Question: For RRIRQRPPRLPRPRPRPSIAPRP, which “shrunken log2 fold change” value is on record?
Answer: The value was -0.00998.

Question: For RRIRMRPPRLPRPRPRPVLVPRP, which “shrunken log2 fold change” value is on record?
Answer: The value was 0.223.

Question: For RRIRLRPPRLPRPRPRPDPQPRP, which “shrunken log2 fold change” value is on record?
Answer: The value was -0.00554.

Question: With RRIRRRPPRLPRPRPRPTVLPRP as the sequence, how does the “shrunken log2 fold change” value read?
Answer: The value was -0.227.

Question: Which “shrunken log2 fold change” value does the source give for RRIRRRPPRLPRPRPRPVLRPRP here?
Answer: Its value is 1.11.

Question: How did the “shrunken log2 fold change” value turn out when RRIRTRPPRLPRPRPRPIIAPRP was run?
Answer: The value was 0.00466.

Question: For RRIRIRPPRLPRPRPRPANWPRP, which “shrunken log2 fold change” value is on record?
Answer: Its value is 0.236.

Question: How did the “shrunken log2 fold change” value turn out when RRIRRRPPRLPRPRPRPQDNPRP was run?
Answer: The value was -0.668.

Question: With RRIRARPPRLPRPRPRPTGQPRP as the sequence, how does the “shrunken log2 fold change” value read?
Answer: The value was 0.65.

Question: RRIRFRPPRLPRPRPRPIPNPRP was tested. Which “shrunken log2 fold change” value did it give?
Answer: The value was -0.361.

Question: RRIRNRPPRLPRPRPRPTCAPRP was tested. Which “shrunken log2 fold change” value did it give?
Answer: Its value is 0.161.

Question: Which “shrunken log2 fold change” value does the source give for RRIRWRPPRLPRPRPRPYVLPRP here?
Answer: Its value is -0.843.

Question: RRIRRRPPRLPRPRPRPRVFPRP was tested. Which “shrunken log2 fold change” value did it give?
Answer: The value was 0.849.

Question: How did the “shrunken log2 fold change” value turn out when RRIRFRPPRLPRPRPRPHRMPRP was run?
Answer: The value was -0.15.

Question: With RRIRVRPPRLPRPRPRPVWVPRP as the sequence, how does the “shrunken log2 fold change” value read?
Answer: Its value is -0.123.

Question: RRIRDRPPRLPRPRPRPRQQPRP was tested. Which “shrunken log2 fold change” value did it give?
Answer: The value was 0.388.

Question: With RRIRIRPPRLPRPRPRPEILPRP as the sequence, how does the “shrunken log2 fold change” value read?
Answer: The value was -0.0902.

Question: How did the “shrunken log2 fold change” value turn out when RRIRVRPPRLPRPRPRPADCPRP was run?
Answer: The value was 0.0869.

Question: Which “shrunken log2 fold change” value does the source give for RRIRNRPPRLPRPRPRPHPFPRP here?
Answer: The value was -0.0852.

Question: For RRIRERPPRLPRPRPRPGYIPRP, which “shrunken log2 fold change” value is on record?
Answer: The value was -0.709.

Question: For RRIRVRPPRLPRPRPRPKLDPRP, which “shrunken log2 fold change” value is on record?
Answer: The value was 0.116.

Question: RRIRRRPPRLPRPRPRPTLAPRP was tested. Which “shrunken log2 fold change” value did it give?
Answer: Its value is 0.939.

Question: With RRIRQRPPRLPRPRPRPKYDPRP as the sequence, how does the “shrunken log2 fold change” value read?
Answer: The value was -0.165.

Question: RRIRKRPPRLPRPRPRPCNQPRP was tested. Which “shrunken log2 fold change” value did it give?
Answer: The value was 0.0585.

Question: Which “shrunken log2 fold change” value does the source give for RRIRSRPPRLPRPRPRPFKTPRP here?
Answer: Its value is -0.0323.

Question: With RRIRTRPPRLPRPRPRPREYPRP as the sequence, how does the “shrunken log2 fold change” value read?
Answer: The value was -0.00842.

Question: RRIRPRPPRLPRPRPRPILMPRP was tested. Which “shrunken log2 fold change” value did it give?
Answer: Its value is -0.112.

Question: How did the “shrunken log2 fold change” value turn out when RRIRYRPPRLPRPRPRPTSMPRP was run?
Answer: The value was -1.

Question: For RRIRNRPPRLPRPRPRPSTRPRP, which “shrunken log2 fold change” value is on record?
Answer: The value was 0.326.

Question: For RRIRRRPPRLPRPRPRPVDRPRP, which “shrunken log2 fold change” value is on record?
Answer: Its value is 0.0916.

Question: RRIRRRPPRLPRPRPRPDCRPRP was tested. Which “shrunken log2 fold change” value did it give?
Answer: Its value is 0.0322.

Question: With RRIRKRPPRLPRPRPRPDSYPRP as the sequence, how does the “shrunken log2 fold change” value read?
Answer: Its value is -0.00206.

Question: Which “shrunken log2 fold change” value does the source give for RRIRSRPPRLPRPRPRPWRNPRP here?
Answer: The value was -0.0428.

Question: With RRIRHRPPRLPRPRPRPFICPRP as the sequence, how does the “shrunken log2 fold change” value read?
Answer: Its value is 0.00486.

Question: Which “shrunken log2 fold change” value does the source give for RRIRERPPRLPRPRPRPYSHPRP here?
Answer: The value was 0.0583.

Question: Which “shrunken log2 fold change” value does the source give for RRIRSRPPRLPRPRPRPCMLPRP here?
Answer: Its value is -0.472.
